Data on 1 molecule can be found in US20040110287A1, “Multi-step method for the differentiation of insulin positive, glucose responsive cells” (ES Cell International Pte Ltd., priority 2002, published 2004).

The test relates to pdx1+ cells. Briefly: Expansion of pdx1+ cells in non-adherent clusters of human pancreatic duct cells. It counts as cell-based. As to the method: Pancreatic duct cells were isolated from human donor tissue, using the methods described in detail in Example 2. The cells were plated as non-adherent cell clusters in DMEM-F12 (pH 7.4), 2 mM glutamine, 1% penicillin-streptomycin, 2% B27 (Life Sciences Technologies) and 8 mM HEPES. Following 1-4 days in culture, the media was changed to DMEM-F12 (pH 6.9-7.1), 2 mM glutamine, 1% penicillin-streptomycin, and 2% B27 (Life Sciences Technologies). This media was supplemented with the following four factors: dexamethasone (10^−7-10^−9 M), forskolin (10 μM), insulin (20 μg/ml) and FGF-18 (20 ng/ml). The media was optionally supplemented with heparin which is often used to enhance the effects of FGF. The cells were cultured for a number of days in this supplemented media which was changed daily.
Following approximately one day in culture, Pdx1+ cells (a marker of pancreatic progenitor cells) began appearing on the surface of the non-adherent clusters. The size and number of Pdx1+ cells continues to increase for approximately 12 days. Following 8 to 12 days in culture under expansion conditions, non-adherent cell clusters containing an increased number of Pdx1+ cells were subjected to a differentiation protocol to produce insulin+, glucose responsive cell clusters.
This effect on pdx1 expression was further augmented if the follistatin-related factor follistatin or a combination of follistatin and the GLP-1 agonist exendin-4 was added to the above list of factors used to supplement the acidic culture medium. Briefly, cultures expanded in forskolin (a cAMP elevating agent), dexamethasone (a corticosteroid), insulin, FGF18 (a FGF family member), heparin (known to potentiate the activity of FGF family members), and follistatin (a follistatin-related factor) contained approximately 281 fold more pdx1+ cells than cells differentiated in the absence of the expansion protocol. […]

B1: follistatin (protein, UniProt P19883 30-344, looked up)
Follistatin: GNCWLRQAKNGRCQVLYKTELSKEECCSTGRLSTSWTEEDVNDNTLFKWMIFNGGAPNCIPCKETCENVDCGPGKKCRMNKKNKPRCVCAPDCSNITWKGPVCGLDGKTYRNECALLKARCKEQPELEVQYQGRCKKTCRDVFCPGSSTCVVDQTNNAYCVTCNRICPEPASSEQYLCGNDGVTYSSACHLRKATCLLGRSIGLAYEGKCIKAKSCEDIQCTGGKKCLWDFKVGRGRCSLCDELCPDSKSDEPVCASDNATYASECAMKEAACSSGVLLEVKHSGSCNSISEDTEEEEEDEDQDYSFPISSILEW
Take B1: the “fold more pdx1+ cells than cells differentiated in the absence of the expansion protocol” value (4 days basal medium, 4 days acidic expansion medium, before differentiation) is recorded as “approximately 281 fold”. Besides, the “fold increase in total islet equivalents (IEs) versus multistep differentiation protocol alone” value (FIG. 5) is listed as 281 fold. Besides, the “pdx1 expression versus expansion medium alone” value (FIG. 6 and FIG. 7, added to expansion medium) was “increase in pdx1 expression”.
